Reference: the RNAGym collection of RNA variant scans (doi:10.1073/pnas.2313332121)
Fewer inactive variants are shown than the library holds.

B1: TPR 5TU (parent)
chain: GGAUCUUCUCGAUCUAACAAAAAAGACAAAUCUGCCACAAAGCUUGAGAGCAUCUUCGGAUGCAGAGGCGGCAGCCUUCGGUGGCGCGAUAGCGCCAACGUUCUCAACUAUGACACGCAAAACGCGUGCUCCGUUGAAUGGAGUUUAUCAUG

Variants of: B1
Assay: polymerase ribozyme fitness, log enrichment relative to wild type (log ratio); higher = more active; in vitro selection for triplet polymerase activity
Procedure, shortened: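 For each subunit of a heterodimeric triplet polymerase ribozyme, a mutant library was built by PCR and transcribed, then taken through a single in vitro selection round in triplicate. Selection involved annealing to a biotinylated primer, the partner subunit and triplets, incubation frozen at −7 °C, gel excision of extended constructs, capture on streptavidin beads and RT-PCR. Genotypes were retained after Illumina sequencing of inputs and outputs only with ≥10 input reads and ≥1 read in each output. Fitness is defined as the logarithm of a genotype's enrichment relative to wild-type enrichment, using inverse-variance-weighted averages across replicates, with the logarithm taken to base 2.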
In the case of GGAUCUUCUCGAUCUAACAAAAAAGACAAAUCUGCCACAAAGCUUGAGAGCAUCUUCGGAUGCAGAGGCGACAGCCUUCGGUGGCGGGAUAGAGGCAACGUUCUCAACUAUGACACGCAAAACGCGUGCUCCGUUGAAUGGAGUUUAUCAUG [G71A C87G C93A C95G], the “polymerase ribozyme fitness (log ratio)” value is reported as ≤ -4.2.
In the case of GGAUCUUCUCGAUCUAACAAAAAAGACAAAUCUGCCACAAAGCUUGAGAGCAUCUUCGGAUGCAGAGGCUGCAGCCUUCGGUGGCGCGAUAGCGCCAACGUUCUCAACUAUGACACGCAAAACGCGUGCUCCGUUAAAUGGAGUUUAUCAUG [G70U G136A], the “polymerase ribozyme fitness (log ratio)” value is reported as -1.86.
For GGAUCUUCUCGAUCUAACAAAAAAGACAAAUCUGCCACAAAGCUUGAGAGCAUCUUCGGAUGCAGAGGCGACAGCCUUCGGUGGGGUGAUAGCGCCAACGUUCUCAACUAUGACACGCAAAACGCGUGCUCCGUUGAAUGGAGUUUAUCAUG [G71A C85G C87U], the “polymerase ribozyme fitness (log ratio)” value was ≤ -4.2.
For GGAUCUUCUCGAUCUAACAAAAAAGACAAAUCUGCCACAAAGCUUGAGAGCAUCUUCGGAUGCAGAGGCUGCAGCCUUCGGUGUCGUGAUAGCGCCAACAUUCUCAACUAUGACACGCAAAACGCGUGCUCCGUUGAAUGGAGUUUAUCAUG [G70U G84U C87U G100A], the “polymerase ribozyme fitness (log ratio)” value was ≤ -4.2.
For GGAUCUUCUCGAUCUAACAAAAAAGACAAAUCUGCCACAAAGCUUGAGAGCAUCUUCGGAUGCAGAGGCGACAGCCUUCGGUGGCGCGAUAGCGCAAACGUUCUCAACUAUGACACGCAAAACGCGUGCUCCGUUGAAUGGAGUUUAUCAUG [G71A C96A], the “polymerase ribozyme fitness (log ratio)” value was -3.18.
With GGAUCUUCUCGAUCUAACAAAAAAGACAAAUCUGCCACAAAGCUUGAGAGCAUCUUCGGAUGCAGAGGCGACAGCCUUCGGUGGCGCGAUAGCGCCAACGUUCCCAACUAUGACACGCAAAACGCGUGCUCCGUUGAAUGGAGUUUAUCAUG [G71A U104C] the “polymerase ribozyme fitness (log ratio)” value was -3.42.
For GGAUCUUCUCGAUCUAACAAAAAAGACAAAUCUGCCACAAAGCUUGAGAGCAUCUUCGGAUGCAGAGGCGACAGCCUUCGGUGGCGAGAUACCGCCAACGUUCUCAACUAUGACACGCAAAACGCGUGCUCCGUUGAAUGGAGUUUAUCAUG [G71A C87A G92C], the “polymerase ribozyme fitness (log ratio)” value was -3.04.
In the case of GGAUCUUCUCGAUCUAACAAAAAAGACAAAUCUGCCACAAAGCUUGAGAGCAUCUUCGGAUGCAGAGGCUGCAGCCUUCGAUGGCGCGAUAGCGCCAACGUUCUCAACUAUGACACGCAAAACGCGUGCUCCGUUGAAUGGAGUUUAUCAUG [G70U G81A], the “polymerase ribozyme fitness (log ratio)” value is reported as -2.35.
In the case of GGAUCUUCUCGAUCUAACAAAAAAGACAAAUCUGCCACAAAGCUUGAGAGCAUCUUCGGAUGCAGAGGCGACAGCCUUCGGUGGCACGAUAGCGCCAACGUUCUCAACUAUGACACGCAAAACGCGUGCUCCGUUGAAUGGAGUUUAUCAUG [G71A G86A], the “polymerase ribozyme fitness (log ratio)” value is reported as -3.5.
With GGAUCUUCUCGAUCUAACAAAAAAGACAAAUCUGCCACAAAGCUUGAGAGCAUCUUCGGAUGCAGAGGCGACAGCCUUCGGUGGCGCGAUUGCGGCAACGUUCUCAACUAUGACACGCUAGACGCGUGAUCCGUUGAAUGGAGUUUGUCAUG [G71A A91U C95G A119U A121G C129A A147G] the “polymerase ribozyme fitness (log ratio)” value was ≤ -4.2.
In the case of GGAUCUUCUCGAUCUAACAAAAAAGACAAAUCUGCCACAAAGCUUGAGAGCAUCUUCGGAUGCAGAGGCGACAGCCUUCGGUGGCGCGAUAGCGCCAAUGUUCUCAACUAUGACACGCAAAACGCGUGCUCCGUUGAAUGGAGUUUAUCAUG [G71A C99U], the “polymerase ribozyme fitness (log ratio)” value is reported as ≤ -4.2.
With GGAUCUUCUCGAUCUAACAAAAAAGACAAAUCUGCCACAAAGCUUGAGAGCAUCUUCGGAUGCAGAGGCUGCAGCCUUCUGUGGCGCGAUAGCGCCAACGUUCUCAACUAUGACACGCGAAACGCGUGCUCCGUUGAAUGGAGUUUAUCAUG [G70U G80U A119G] the “polymerase ribozyme fitness (log ratio)” value was ≤ -4.2.
In the case of GGAUCUUCUCGAUCUAACAAAAAAGACAAAUCUGCCACAAAGCUUGAGAGCAUCUUCGGAUGCAGAGGCGACAGCCUUCUGUGGUGCGAUAGCGCCAACGUUCUCAACUAUGACACGCAAAACGCGUGCUCCGUUGAAUGGAGUUUAUCAUG [G71A G80U C85U], the “polymerase ribozyme fitness (log ratio)” value is reported as ≤ -4.2.
With GGAUCUUCUCGAUCUAACAAAAAAGACAAAUCUGCCACAAAGCUUGAGAGCAUCUUCGGAUGCAGAGGCGACAGCCUUCGGUGGCGCGAUAGCGUCAACGUUCUCAACUAUGACACGCAAAACGCGUGCUCUGUUGAAUGGAGUUUAUCAUG [G71A C95U C132U] the “polymerase ribozyme fitness (log ratio)” value was -4.11.
With GGAUCUUCUCGAUCUAACAAAAAAGACAAAUCUGCCACAAAGCUUGAGAGCAUCUUCGGAUGCAGAGGCGACAGCCUUCGGUGGCGCGAUAGCACCAACGUUCUCAACUAUGACACGCAAAACGCGUGCUCCGUUGAAUGGAGUUUAUCAUG [G71A G94A] the “polymerase ribozyme fitness (log ratio)” value was -2.94.
In the case of GGAUCUUCUCGAUCUAACAAAAAAGACAAAUCUGCCACAAAGCUUGAGAGCAUCUUCGGAUGCAGAGGCGACAGCCUUCGGUGGUGCGAUAGCGCAAACGUUCUCAGCUAUGACACGAAAAACGCGUGCUCCGUUGAAUGGAGUUUAUCAUG [G71A C85U C96A A107G C118A], the “polymerase ribozyme fitness (log ratio)” value is reported as ≤ -4.2.
In the case of GGAUCUUCUCGAUCUAACAAAAAAGACAAAUCUGCCACAAAGCUUGAGAGCAUCUUCGGAUGCAGAGGCUGCAGCCUUCGGUGGCGCGAUAGCGCCAACGUUCUCAACUAUGACACGCAAAACGCGUGCUCCGUUGAAGGGAGUUUAUCAUG [G70U U139G], the “polymerase ribozyme fitness (log ratio)” value is reported as -2.93.
For GGAUCUUCUCGAUCUAACAAAAAAGACAAAUCUGCCACAAAGCUUGAGAGCAUCUUCGGAUGCAGAGGCGACAGCGUUCGGACGCGCGAUAGCGCCAACGUUCUCAACUAUGACACGCAAAACGCGUGCUACGUUGAAUGGAGUUUAUCAUG [G71A C76G U82A G83C C131A], the “polymerase ribozyme fitness (log ratio)” value was ≤ -4.2.
For GGAUCUUCUCGAUCUAACAAAAAAGACAAAUCUGCCACAAAGCUUGAGAGCAUCUUCGGAUGCAGAGGCGACAGCCUUCGGUGGCGCGAUUGCGCCAACGUUCUCAACUAUGACACGCAAAACGCGUGCUCCGUUGAAUGGAGUUGAUCAUG [G71A A91U U146G], the “polymerase ribozyme fitness (log ratio)” value was ≤ -4.2.
